The text below walks through data of PMC7498313, “The Sac10b homolog from Sulfolobus islandicus is an RNA chaperone”.

Data set [1] concerns the target N-terminally truncated Sis10b (ΔN12) (Sulfolobus islandicus REY15A). Nature of the data set: cross-linking; 10 μg protein cross-linked with 0.5 mM DSP, with or without 5 μg of a 25-bp dsRNA, 30 min at 25 or 55°C, 20 mM potassium phosphate pH 7.6, 50 mM KCl; 15% SDS-PAGE, Coomassie stain.
Data set [2] addresses Sis10b M20E/L24E/L27E/F60E (Sulfolobus islandicus REY15A). Described as above.
The target of the next data set is T1, Sis10b wild-type (Sulfolobus islandicus REY15A, UniProt F0NHH1 1-97).
T1 sequence: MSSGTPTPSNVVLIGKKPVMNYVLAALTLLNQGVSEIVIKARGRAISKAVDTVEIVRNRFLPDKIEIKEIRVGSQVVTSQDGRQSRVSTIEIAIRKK
As to the kind of experiment: EMSA; 55°C; EMSA: 20 mM HEPES-NaOH pH 7.0, 1 mM DTT, 100 ug/ml BSA, 6% glycerol, 30 min at 25, 37 or 55°C; gel in 0.5x TBE at the same temperature. Particulars: protein: recombinant, tags: none (NdeI/XhoI pET30a, stop codon in reverse primer), chain copies: 2.

Where “and” joins values, the source holds several entries; their conditions need not be identical. Equal entries are not always repeated.

As to “N-terminally truncated Sis10b (ΔN12) (domain or fragment)”, the stoichiometry N (in general, the number of molecules, sites or subunits per partner or assembly) in data set [1] was 2 and 4.

On to Sis10b M20E/L24E/L27E/F60E, for which the stoichiometry N in data set [2] was 5 and 3.

B1: 44-bp dsRNA (dsRNA)
RNA 1: UGACUUCCGCGCGUGAGCUCGAUUCCACAUACCCUAAAUCGCUC
RNA 2: GAGCGAUUUAGGGUAUGUGGAAUCGAGCUCACGCGCGGAAGUCA
Turning to B1, in the data set with Sis10b wild-type (label: 5' 32P on top strand, blunt), the equilibrium dissociation constant (Kd) (in general, the equilibrium constant for the complex coming apart) was about 29.4 nM.

B2: 44-nt ssRNA (t) (ssRNA)
RNA: UGACUUCCGCGCGUGAGCUCGAUUCCACAUACCCUAAAUCGCUC
In the case of B2, the Kd in the data set with Sis10b wild-type (label: 5' 32P, single strand) was about 5.3 nM.
